Source: US20060127400A1, “Activation of regulatory T cells by alpha-melanocyte stimulating hormone” (THE SCHEPENS EYE RESEARCH INSTITUTE, INC., priority 1999, published 2006)

Columns and labels:
[1] = test system: primed Th1 cells; test: in vitro regulatory T cell activity assay (IFN-γ of freshly activated primed Th1 cells in coculture); assay type: cell-based, mouse (BALB/c); conditions: for induction of regulatory T cell activity (suppression of IFN-γ of other Th1 cells), factor individually: α-MSH 30 pg/ml or TGF-β 5.0 ng/ml; for induction of regulatory T cell activity, TGF-β added 4 hours after TCR-stimulation in the presence of α-MSH: α-MSH 30 pg/ml, TGF-β 5.0 ng/ml
Description: (§1) Assay For In Vitro Regulatory T Cell Activity. The α-MSH-treated TCR-stimulated T cells, as described above, were cultured for 48 hours. The plate was spun down at 250×g for 10 minutes and supernatant discarded. Freshly isolated, enriched in vivo primed Th1 cells (4×10^6 cells/ml) mixed with 2C11 (1 μg/ml) were added (200 μl) to the wells of the α-MSH pre-treated, TCR-stimulated T cells and incubated for 48 hours. The culture supernatant was assayed for IFN-γ by sandwich ELISA. For long term cultures, primed T cells were TCR-stimulated in the presence of α-MSH for 48 hours. The plate was centrifuged and supernatant was exchanged for 200 μl of 2C11 (1 μg/ml) in fresh media, no x-MSH. The cultures were incubated for 72 hours and the conditioned media was again exchanged for fresh media and 2C11 antibody. The cultures were incubated for an additional 48 hours, centrifuged, supernatant discarded, and added were fresh in vivo primed Th1 cells and 2C11 antibody. Soluble TGF-β receptor II (sTGF-βRII, R&D Systems) was added to some of the cultures. These cultures were incubated for 48 hours and the culture supernatant was assayed for IFN-γ by sandwich ELISA.
Primed T cells (4×10^5 cells) were enriched and activated with anti-CD3 in the presence (α-MSH+anti-CD3) or absence (+anti-CD3) of α-MSH (30 pg/ml). After 48 hours of incubation the cells were mixed with freshly enriched primed Th1 cells (4×10^5 cells) and anti-CD3 antibody and cultured for 48 hours. The culture supernatant was assayed for IFN-γ by sandwich ELISA. Results are presented as IFN-γ pg/ml±SEM of eight independent experiments.
In addition, T cells initial TCR-stimulated in the presence of α-MSH and subsequently restimulated twice (Day 2 and Day 5) with anti-TCR antibody in the absence of α-MSH, still suppressed IFN-γ production by freshly activated primed Th1 cells (FIG. 6). […] Primed T cells (4×10^5 cells) were enriched and activated with anti-CD3 antibody in the presence of 30 pg/ml α-MSH (α-MSH+anti-CD3) or absence of α-MSH (+anti-CD3). After 48 hours of incubation the cells were centrifuged and resuspended in fresh media with anti-CD3 antibodies and incubated for 72 hours (day 5). The cells were again washed and re-stimulated with anti-CD3 and incubated for an additional 48 hours (day 7). After the final incubation the treated T cells (4×10^5 cells) were mixed with freshly enriched primed Th1 cells (4×10^5 cells) and anti-CD3 antibody and cultured for 48 hours. The culture supernatant was assayed for IFN-γ by sandwich ELISA. Results are presented as IFN-γ pg/ml±SEM of eight independent experiments. […] Therefore, α-MSH mediates induction of functionally active, regulatory Th3 cells.
TGF-β and α-MSH induce regulatory T cell activity. Primed T cells were TCR-stimulated in the presence or absence of 30 pg/ml α-MSH with TGF-β1 or TGF-β2 (5.0 ng/ml) added 4 hours after TCR-stimulation. The treated T cells (Regulatory T cells) were added to cultures of freshly activated primed T cells. Culture supernatants were assayed for IFN-γ 48 hours after addition of treated T cells. Data are presented as percent suppression±SEM of IFN-γ produced by freshly activated T cells with no added regulatory cells, from eight independent experiments.

[2] = test system: primed T cells; test: proliferation of TCR-stimulated primed T cells (3H-thymidine incorporation); assay type: cell-based, mouse (BALB/c); conditions: for T cell proliferation, increasing concentrations of TGF-β: 0.005-5.0 ng/ml, regardless of the presence of α-MSH 30 pg/ml; for T cell proliferation, TGF-β added from the start of TCR-stimulation through 6 hours later: no α-MSH
[3] = test system: primed T cells; test: total TGF-β production by TCR-stimulated primed T cells, Mv1Lu (CCL-64) bioassay; assay type: cell-based, mouse (BALB/c); conditions: α-MSH 30 pg/ml, TGF-β 5.0 ng/ml, 48 hours
Description: TGF-β bioassay. To measure total TGF-β, 100 μl of conditioned media was pretreated according to standard procedures (24) with 10 μl 1N HCL to lower the media pH to 2 and incubated for 1 hour at 4° C. The acid was neutralized with 20 μl of a 1:1 mixture of 1N NaOH: 1M HEPES returning the culture supernatant to a pH 7.3. The transiently acidified conditioned media was then used in the Mv1Lu assay; diluted 1:4 in EMEM+0.5% FBS. To the wells of a Falcon 96-well flat-bottom plate, 100 μl of diluted transiently acidified samples were added with 100 μl of 1×10^5 Mv1Lu cells (CCL-64; ATCC, Rockville, Md.). The plate was incubated for 20 hours at 37° C., 5% CO2 followed by the addition of 20 μl of 50 μCi/ml 3H-thymidine and the plate was incubated for an additional 4 hours. Supernatant was discarded and 50 μl of 10× Trypsin-EDTA (Biowhittaker, Walkersville, Md.) solution was added to each well and the plate was incubated for 15 minute at 37° C. The cells were collected onto filter paper using a Tomtec Plate Harvester 96 and counts per minute (CPM) of incorporation 3H-thymidine was measured using a Wallac 1205 Betaplate Liquid Scintillation Counter. Cultures of known amounts of purified activated TGF-β1, 20 ng/ml to 0.2 pg/ml (R&:D Systems), were prepared in the same plate for calculating a standard curve to quantify the concentration of total TGF-β in the samples.
Primed T Cell In Vitro Assays. From draining lymph nodes of BALB/c mice immunized 7 days previously with MT-Ag, primed T cells were isolated using CD3 enrichment columns (R&D Systems). T-cells (4×10^5 cells) suspended in serum-free media were added to the wells of a 96 well, round bottom plate (Corning). To the wells were added α-MSH (30 pg/ml) and anti-TCR antibody (2C11; 1 μg/ml) diluted in serum-free culture media. Various concentrations of TGF-β1 or TGF-β2 in media were added. In a second set of experiments TGF-β1 or TGF-β2 at a fixed concentration of 5 ng/ml were added to the wells at various times (0, 2, 4 and 6 hours) after addition of anti-TCR antibody. The cultures were incubated for 24 hours and 0.5 μCi of 3H-thymidine (NEM, Boston, Mass.) was added to the wells and the cultures were incubated for an additional 24 hours. The cells were collected and incorporated radiolabeled was measured by scintillation counting. Production of TGF-β by the treated primed T cells was done by centrifuging the culture plates 24 hours after the addition of anti-TCR antibody, removing the supernatant, washing the cultures once and adding fresh media. […]
FIG. 4 is a bar graph of TGF-β production by primed T cells TCR-stimulated in the presence of α-MSH. […] Significance (p=0.05) was determined by Student's t-test between TGF-β concentrations in cultures of activated α-MSH treated T cells and T cells activated in the absence of α-MSH. […]

[4] = test system: TGF-β; test: in vitro regulatory T cell assay with soluble TGF-β receptor type II added; assay type: cell-based, mouse; conditions: increasing amounts added to cocultures, 48 hours
Description: as §1
α-MSH induced regulatory T cells that through TGF-β suppress activation of other T cells. […] The regulatory T cells were washed and added to cultures of freshly TCR-stimulated primed T cells as described for FIG. 15. […]

Molecule	induction of regulatory T cell activity (suppression of IFN-γ of other Th1 cells), factor individually [1]	induction of regulatory T cell activity, TGF-β added 4 hours after TCR-stimulation in the presence of α-MSH [1]	T cell proliferation, increasing concentrations of TGF-β [2]	T cell proliferation, low concentrations of TGF-β ([2]; TCR-stimulated primed T cells, FIG. 9)	T cell proliferation, TGF-β added from the start of TCR-stimulation through 6 hours later ([2]; TGF-β 5.0 ng/ml)	α-MSH-induced TGF-β production after addition of TGF-β at various times after TCR-stimulation [3]	T cell proliferation, TGF-β added at or later than 4 hours after TCR-stimulation ([2]; TGF-β 5.0 ng/ml, α-MSH 30 pg/ml present)	effect on suppression of IFN-γ production mediated by α-MSH-treated T cells [4]
TGF-β1: purified activated TGF-β1 (R&D Systems), transforming growth factor	could not alone or with α-MSH induce regulatory T cells	antagonized α-MSH-mediated induction of regulatory T cells	suppressed	either no effect or enhanced	suppressed	did not change		
TGF-β2: recombinant / purified human transforming growth factor-β2 (R&D Systems) (protein, UniProt P61812 303-414, looked up, Transforming growth factor beta-2) Transforming growth factor …: ALDAAYCFRNVQDNCCLRPLYIDFKRDLGWKWIHEPKGYNANFCAGACPYLWSSDTQHSRVLSLYNTINPEASASPCCVSQDLEPLTILYYIGKTPKIEQLSNMIVKSCKCS	induced regulatory T cell activity	enhanced the regulatory activity	suppressed		suppressed	did enhance	recovered	
sTGF-βRII: soluble TGF-β receptor type-two (R&D Systems), used to neutralize TGF-β activity (protein, UniProt P37173 23-166, looked up, extracellular domain) extracellular domain: TIPPHVQKSVNNDMIVTDNNGAVKFPQLCKFCDVRFSTCDNQKSCMSNCSITSICEKPQEVCVAVWRKNDENITLETVCHDPKLPYHDFILEDAASPKCIMKEKKKPGETFFMCSCSSDECNDNIIFSEEYNTSNPDLLLVIFQ								neutralized
